Results: patent publication US20130059793A1 (University of Texas, published 2013)
Ends that are not written are not given here.

B1: CVRAC-displaying phage (peptide)
peptide: CVRAC
modifications: not fully specified (bridges); also: cyclic, ring type not given here, displayed on phage
notes: the phage coat protein that carries the insert is not described; also called CVRAC-phage; phage displaying the cyclic peptide CVRAC
B2: CVAAC-displaying phage (peptide)
peptide: CVAAC
modifications: not fully specified (bridges); also: cyclic, ring type not given here, displayed on phage
notes: coat protein fusion not described; also called CVAAC-phage; alanine scanning control

Columns and labels:
[1] = target: T1, bovine serum albumin (BSA) (bovine, UniProt P02769 25-607); experiment: phage binding assay on immobilized proteins
T1 construct: Negative control protein

VEGF = target: T2, VEGF (UniProt P15692-4 27-191, limits assumed); experiment: phage binding assay on proteins coated onto microtiter wells
T2 construct: Negative control protein; also called negative control protein VEGF

[2] = target: T3, epidermal growth factor (EGF) (UniProt P01133 971-1023); experiment: as above
T3 construct: Bought

[3] = target: T4, transforming growth factor alpha (TGF-α) (UniProt P01135 40-89); experiment: as above
T4 construct: Bought; also called Tumor Growth Factor alpha

T1 sequence (P02769 25-607 limits assumed): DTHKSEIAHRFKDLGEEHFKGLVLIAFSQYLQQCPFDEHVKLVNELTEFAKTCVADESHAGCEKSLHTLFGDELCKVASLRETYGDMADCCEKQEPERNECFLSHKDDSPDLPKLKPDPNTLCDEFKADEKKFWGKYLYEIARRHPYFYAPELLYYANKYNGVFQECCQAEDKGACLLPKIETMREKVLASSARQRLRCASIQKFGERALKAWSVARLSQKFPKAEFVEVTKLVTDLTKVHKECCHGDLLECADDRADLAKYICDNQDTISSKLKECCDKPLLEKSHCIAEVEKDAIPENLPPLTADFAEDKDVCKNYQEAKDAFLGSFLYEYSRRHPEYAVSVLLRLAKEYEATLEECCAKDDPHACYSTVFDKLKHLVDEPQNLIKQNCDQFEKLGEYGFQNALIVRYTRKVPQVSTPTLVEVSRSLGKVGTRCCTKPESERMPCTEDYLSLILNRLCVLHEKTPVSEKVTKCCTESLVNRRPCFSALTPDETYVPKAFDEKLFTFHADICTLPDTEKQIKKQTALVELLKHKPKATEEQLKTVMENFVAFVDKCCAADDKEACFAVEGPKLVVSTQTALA
T2 sequence (P15692 other isoform, or with tags, fused parts or gaps limits assumed): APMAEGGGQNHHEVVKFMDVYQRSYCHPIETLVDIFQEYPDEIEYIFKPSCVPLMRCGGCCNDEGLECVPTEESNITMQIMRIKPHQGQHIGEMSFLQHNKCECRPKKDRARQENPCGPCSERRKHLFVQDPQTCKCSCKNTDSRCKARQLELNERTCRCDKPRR
T3 sequence (P01133 971-1023 limits assumed): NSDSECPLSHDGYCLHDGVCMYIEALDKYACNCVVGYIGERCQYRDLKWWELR

Binder	binding result [1]	binding result (VEGF)	binding result [2]	binding result [3]
B1	no binding	no binding	–	–
B2	–	–	no binding	no binding
